Assay results: PMC3017548

What was measured:
Test in all cases: filter binding
[1] = tested on: Gadd45a K45A (Xenopus tropicalis); details: loss of discrimination between vector and total RNA in competition; 10 mM Tris-HCl pH 7.4, 10 mM KCl, 1 mM MgCl2; 2.5 or 1.3 uM protein, ~2 ng 32P-MCS RNA, 20 min; temperature not given; nitrocellulose filter
[2] = tested on: Gadd45a G39A (Xenopus tropicalis); details: loss of discrimination between vector and total RNA in competition; 10 mM Tris-HCl pH 7.4, 10 mM KCl, 1 mM MgCl2; 2.5 or 1.3 uM protein, ~2 ng 32P-MCS RNA, 20 min; temperature not given; nitrocellulose filter
[3] = tested on: Gadd45a R34G (Xenopus tropicalis); details: 10 mM Tris-HCl pH 7.4, 10 mM KCl, 1 mM MgCl2; 2.5 or 1.3 uM protein, ~2 ng 32P-MCS RNA, 20 min; temperature not given; nitrocellulose filter
[4] = tested on: Gadd45a V49R (Xenopus tropicalis); details: 10 mM Tris-HCl pH 7.4, 10 mM KCl, 1 mM MgCl2; 2.5 or 1.3 uM protein, ~2 ng 32P-MCS RNA, 20 min; temperature not given; nitrocellulose filter

For “MCS RNA (multiple cloning site transcript)”, which binding signal (fold of wild type binding (comparable)) [1] is on record?
The binding signal (fold of wild type binding (comparable)) was 1.

And the binding signal (fold of wild type binding (comparable)) [2]?
The binding signal (fold of wild type binding (comparable)) was 1.

And the binding signal (fold of wild type binding (comparable)) [3]?
The binding signal (fold of wild type binding (comparable)) was 1.

What about the binding signal (fold of wild type binding) [4] of the same substance?
Its binding signal (fold of wild type binding) is 3.
